Assay results reported in article PMC8516981.

Assays:
[1] = molecular target: α-synuclein (αS) fibrils (human) (UniProt P37840); assay: microfluidic diffusional sizing; in solution; DnaJB1 or Apg2 alone with αS fibrils (concentrations as monomer equivalents); 50 mM HEPES-KOH pH 7.5, 50 mM KCl, 5 mM MgCl2, 2 mM DTT
[2] = molecular target: α-synuclein (αS) fibrils (human) (UniProt P37840); assay: microfluidic diffusional sizing; in solution; labelled Hsc70 with αS fibrils (concentrations as monomer equivalents); 50 mM HEPES-KOH pH 7.5, 50 mM KCl, 5 mM MgCl2, 2 mM DTT; in the presence of ATP
[3] = molecular target: α-synuclein (αS) fibrils (human) (UniProt P37840); assay: microfluidic diffusional sizing; in solution; labelled Hsc70 with αS fibrils (concentrations as monomer equivalents); 50 mM HEPES-KOH pH 7.5, 50 mM KCl, 5 mM MgCl2, 2 mM DTT; in the presence of ATP and DnaJB1

Chain of heat shock cognate Hsc70 (HSPA8) (P11142 whole entry): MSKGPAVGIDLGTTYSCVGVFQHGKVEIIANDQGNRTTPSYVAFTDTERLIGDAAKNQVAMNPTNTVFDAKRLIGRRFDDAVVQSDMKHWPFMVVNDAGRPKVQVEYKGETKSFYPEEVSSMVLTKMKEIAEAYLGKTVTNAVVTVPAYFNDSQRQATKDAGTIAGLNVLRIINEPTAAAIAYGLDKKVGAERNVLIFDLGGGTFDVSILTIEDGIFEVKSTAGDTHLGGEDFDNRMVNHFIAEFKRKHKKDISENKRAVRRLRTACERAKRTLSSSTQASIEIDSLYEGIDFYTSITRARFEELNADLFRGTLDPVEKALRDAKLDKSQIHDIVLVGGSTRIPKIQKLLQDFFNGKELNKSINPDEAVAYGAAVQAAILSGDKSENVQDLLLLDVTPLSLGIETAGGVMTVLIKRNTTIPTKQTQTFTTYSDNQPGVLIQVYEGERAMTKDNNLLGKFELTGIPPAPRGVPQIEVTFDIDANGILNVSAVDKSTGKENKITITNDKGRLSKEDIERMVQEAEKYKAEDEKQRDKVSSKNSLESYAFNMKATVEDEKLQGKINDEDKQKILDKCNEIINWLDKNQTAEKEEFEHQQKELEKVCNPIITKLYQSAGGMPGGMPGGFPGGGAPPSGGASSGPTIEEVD
Chain of DnaJB1 (Hsp40 class B J-protein) (P25685 whole entry): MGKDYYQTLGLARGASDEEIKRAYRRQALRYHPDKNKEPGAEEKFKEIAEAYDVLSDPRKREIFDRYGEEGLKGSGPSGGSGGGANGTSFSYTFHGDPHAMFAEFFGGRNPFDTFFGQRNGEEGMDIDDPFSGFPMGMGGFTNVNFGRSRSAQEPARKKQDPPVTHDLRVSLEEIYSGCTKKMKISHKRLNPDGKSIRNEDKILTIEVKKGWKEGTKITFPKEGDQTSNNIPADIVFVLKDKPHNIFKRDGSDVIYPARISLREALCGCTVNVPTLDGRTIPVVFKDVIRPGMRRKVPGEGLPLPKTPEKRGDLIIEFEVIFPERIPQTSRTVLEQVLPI

Kd [1] [µM]	Kd [2] [µM]	stoichiometry N (αS monomer units per Hsc70 molecule) [2]	Kd [3] [µM]	Substance
0.246	–	–	–	DnaJB1 (Hsp40 class B J-protein) (from UniProt P25685 1-340) (natural protein)
–	0.139	5.3	0.0475	heat shock cognate Hsc70 (HSPA8) (from UniProt P11142 1-646) (natural protein)
